Among the data in publication PMC10194977 are EC50 of activation of PERK kinase activity (ATP consumption, ADP-Glo luminescence; 87 nM PERK, 0.26 μM SMAD3 as substrate, 50 μM ATP; RT, 2 h; three-fold serial dilution of calcineurin-B), relative PERK kinase activity (% of basal activity; ADP-Glo, SMAD3 substrate) with 0.87 μM calcineurin-B and % of PERK activity (relative to control; ADP-Glo, SMAD3 substrate) with 0.87 μM calcineurin-B, 1 h values, retold here.

Experiment [1] concerns the target Recombinant human PERK (EIF2AK3, active catalytic subunit of PERK protein) (human).
The target is the same in experiment [2]. This is another data set of the same source.
For experiment [3] the target is unchanged. This is another data set of the same source.

Regarding “full-length recombinant human calcineurin-B (from UniProt P63098 1-170) (natural protein)”, in experiment [1], the EC50 of activation of PERK kinase activity (ATP consumption, ADP-Glo luminescence; 87 nM PERK, 0.26 μM SMAD3 as substrate, 50 μM ATP; RT, 2 h; three-fold serial dilution of calcineurin-B) worked out at 2.72 µM. Moreover, the relative PERK kinase activity (% of basal activity; ADP-Glo, SMAD3 substrate) with 0.87 μM calcineurin-B at reaction times of 15, 30, 60 and 120 min, RT; highest value at 120 min in experiment [2] came out at 128%. For the same substance, in experiment [3], the % of PERK activity (relative to control; ADP-Glo, SMAD3 substrate) with 0.87 μM calcineurin-B, 1 h at 37 °C (no significant activation) was determined as 99.5% and the % of PERK activity (relative to control; ADP-Glo, SMAD3 substrate) with 0.87 μM calcineurin-B, 1 h at RT was 106%.
